# Target: soluble HLA-E-VL9, HLA-E*01:03 heavy chain refolded with β2-microglobulin and synthetic VL9 peptide (Homo sapiens, HLA-E*01:03, strain)
row,binding result,Binder
1,binds,"CA177 (antibody, V domains shown) VH: RCSCRSRAPGLVKPSETLSLTCTVSGGSISSYYWSWIRQPPGKGLEWIGYIYYSGSTNYNPSLKSRVTISVDTSKNQFSLKLSSVTAADTAVYYCASHDYTDHAAGYWGQGTLVTVSS VL: not shown"
2,binds,"CA178 (antibody, V domains shown) VH: QVQLVQSGAEVKKPGSSVKVSCKASGGTFSSYAISWVRQAPGQGLEWMGGIIPIFGTANYAQKFQGRVTITADESTSTAYMELSSLRSEDTAVYYCARDYGGSYYYEYFQHWGQGTLVTVSS VL: not shown"
3,binds,"CA180 (antibody, V domains shown) VH: QVQLVQSGAEVKKPGASVKVSCKASGYTFTSYGISWVRQAPGQGLEWMGWISAYNGNTNYAQKLQGRVTMTTDTSTSTAYMELRSLRSDDTAVYYCARDLGYSSSWYTSNWFDPWGQGTLVTVSS VL: QSALTQPASVSGSPGQSITISCTGTSSDVGSYNLVSWYQQHPGKAPKLMIYEGSKRPSGVSNRFSGSKSGNTASLTISGLQAEDEADYYCCSYAGSSTVVFGGGTKLTVL"
4,binds,"CA176 (antibody, V domains shown) VH: QVQLVESGGGVVQPGRSLRLSCAASGFTFSSYGMHWVRQAPGKGLEWVAVISYDGSNKYYADSVKGRFTISRDNSKNTLYLQMNSLRAEDTAVYYCAKDEGSSDFWSGYYASFDYWGQGTLVTVSS VL: DIQMTQSPISLSASVGDRVTITCRASQDISNYLTWYQQKPGKAPKLLIYAASSLQSGVPSRFSGSGSGTDFTLTISNLQPEDFATYYCQQNYSYPCTFGQGTKVEIK"

# — publication PMC8960791 (Communications Biology, 2022)
